This note sets out measurements from paper PMC4877382.

In one data set the test system is FIS (Escherichia coli). Briefly: EMSA. As to conditions: EMSA: 10 mM Tris-HCl pH 8, 10 mM MgCl2, 100 mM NaCl, 10 mM KCl, 1 mM spermidine, 0.5 mM DTT, 5% glycerol, 0.08 mg/ml BSA, 50 ng poly dI-dC, 25 C, 15 min …. (In EMSA bound probe runs differently from free probe, usually more slowly.)
The next data set concerns H-NS (Escherichia coli). Briefly: EMSA. The settings on record: EMSA: 10 mM Tris-HCl pH 8, 10 mM MgCl2, 100 mM NaCl, 10 mM KCl, 1 mM spermidine, 0.5 mM DTT, 5% glycerol, 0.08 mg/ml BSA, 50 ng poly dI-dC, 25 C, 15 min ….

As to cspA promoter 310 bp fragment, the binding signal came to 7 nM in the data set with FIS (Escherichia coli) and 520 nM in the data set with H-NS (Escherichia coli).
